Measurements from paper doi:10.1101/869925 (bioRxiv, 2019).

B1: his-EmGFP-DBNL(1-374) (domain or fragment)
chain: not shown
B2: his-EmGFP-DBNL(1-256) (domain or fragment)
chain: not shown
B3: endogenous human drebrin-like protein (DBNL) (natural protein)
chain: not shown

Experiments:
[1] = molecular target: the molecule itself; test: fluorescence correlation spectroscopy
native gel or EMSA = molecular target: the molecule itself; test: native gel or EMSA

Protein	binding result [1]	stoichiometry N (native gel or EMSA)
B1	binds	–
B2	binds	–
B3	–	2
